Target: T1, human FcRH5 (FcRH5c/IRTA2c, PRO52387), recombinant protein ('Hu antigen') (human) (UniProt Q96RD9)
T1 sequence: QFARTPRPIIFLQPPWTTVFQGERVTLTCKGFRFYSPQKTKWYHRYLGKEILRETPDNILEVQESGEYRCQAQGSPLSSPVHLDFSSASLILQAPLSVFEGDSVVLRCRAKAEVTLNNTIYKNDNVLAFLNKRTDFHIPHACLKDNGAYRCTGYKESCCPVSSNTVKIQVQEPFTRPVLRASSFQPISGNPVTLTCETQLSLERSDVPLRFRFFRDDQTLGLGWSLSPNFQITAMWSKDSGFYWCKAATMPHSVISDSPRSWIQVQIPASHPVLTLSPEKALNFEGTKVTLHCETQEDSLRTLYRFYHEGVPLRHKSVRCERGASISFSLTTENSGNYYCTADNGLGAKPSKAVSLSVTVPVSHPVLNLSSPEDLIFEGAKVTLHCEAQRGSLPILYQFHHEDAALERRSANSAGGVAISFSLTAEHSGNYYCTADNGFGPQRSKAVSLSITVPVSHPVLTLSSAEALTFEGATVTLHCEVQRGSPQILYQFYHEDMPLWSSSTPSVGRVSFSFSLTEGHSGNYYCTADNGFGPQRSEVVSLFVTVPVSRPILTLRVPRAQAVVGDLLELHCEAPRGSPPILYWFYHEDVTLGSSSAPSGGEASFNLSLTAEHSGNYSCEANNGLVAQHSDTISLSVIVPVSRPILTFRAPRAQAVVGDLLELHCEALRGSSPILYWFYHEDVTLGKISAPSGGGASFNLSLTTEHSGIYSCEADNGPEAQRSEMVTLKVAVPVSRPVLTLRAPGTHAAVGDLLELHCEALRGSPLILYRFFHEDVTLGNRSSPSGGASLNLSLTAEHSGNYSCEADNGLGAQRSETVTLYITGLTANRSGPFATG
Experiment: SPR (Biacore 2000), IgG captured on anti-murine IgG chip, serial dilutions of FcRH injected, 25 C, 1:1 Langmuir fit

Kd: 19 nM
B1: murine anti-FcRH5-13G9 monoclonal antibody (antibody, from another filing, V domains shown)
VH: EVQLVQSGPELKKPGETVKISCKASGYTFTNYGMNWVKQAPGKGLKWMGWVNTYTGEPTYTDDFKGRFAFSVETSASTVFLQINNLKNEDTATYFCARRSIPYYYAMDYWGQGTSLT
VL: DIVMTQSQKIMSTSVGDRVNVTCKASQNVGSNVAWYHQKPGQSPKALIYSASYRYSGVPDRFTGSGSGTDFTLTISNVQSEDLAEYFCQQYKTWTFGGGTKLEIKR
